Experimental data: PMC2518520

Columns and labels:
[1] = molecular target: heterotrimeric Gq (Gαqβ1γ2) (UniProt P21279); assay: global least-squares fit of a kinetic model to steady-state GTPase rates; GTP-bound Gq species; purified proteins in unilamellar phospholipid vesicles; constants calculated from fitted rate constants (log average of 41 fits); protein concentrations counted on the bilayer volume, so association constants are about 13,000-fold higher than on the aqueous volume
[2] = molecular target: complex of agonist-bound m1 muscarinic cholinergic receptor with heterotrimeric Gq (Gαqβ1γ2) (UniProt P11229); assay: global least-squares fit of a kinetic model to steady-state GTPase rates; GDP-bound Gq species; purified proteins in unilamellar phospholipid vesicles; constants calculated from fitted rate constants (log average of 41 fits); protein concentrations counted on the bilayer volume, so association constants are about 13,000-fold higher than on the aqueous volume
[3] = molecular target: heterotrimeric Gq (Gαqβ1γ2) (UniProt P21279); assay: as above
[4] = molecular target: complex of agonist-bound m1 muscarinic cholinergic receptor with heterotrimeric Gq (Gαqβ1γ2) (UniProt P11229); assay: global least-squares fit of a kinetic model to steady-state GTPase rates; GTP-bound Gq species; purified proteins in unilamellar phospholipid vesicles; constants calculated from fitted rate constants (log average of 41 fits); protein concentrations counted on the bilayer volume, so association constants are about 13,000-fold higher than on the aqueous volume
[5] = molecular target: complex of agonist-bound m1 muscarinic cholinergic receptor with heterotrimeric Gq (Gαqβ1γ2) (UniProt P11229); assay: global least-squares fit of a kinetic model to steady-state GTPase rates; nucleotide-free Gq species; purified proteins in unilamellar phospholipid vesicles; constants calculated from fitted rate constants (log average of 41 fits); protein concentrations counted on the bilayer volume, so association constants are about 13,000-fold higher than on the aqueous volume
[6] = molecular target: heterotrimeric Gq (Gαqβ1γ2) (UniProt P21279); assay: as above

m1 muscarinic cholinergic receptor, sequence (P11229 whole entry): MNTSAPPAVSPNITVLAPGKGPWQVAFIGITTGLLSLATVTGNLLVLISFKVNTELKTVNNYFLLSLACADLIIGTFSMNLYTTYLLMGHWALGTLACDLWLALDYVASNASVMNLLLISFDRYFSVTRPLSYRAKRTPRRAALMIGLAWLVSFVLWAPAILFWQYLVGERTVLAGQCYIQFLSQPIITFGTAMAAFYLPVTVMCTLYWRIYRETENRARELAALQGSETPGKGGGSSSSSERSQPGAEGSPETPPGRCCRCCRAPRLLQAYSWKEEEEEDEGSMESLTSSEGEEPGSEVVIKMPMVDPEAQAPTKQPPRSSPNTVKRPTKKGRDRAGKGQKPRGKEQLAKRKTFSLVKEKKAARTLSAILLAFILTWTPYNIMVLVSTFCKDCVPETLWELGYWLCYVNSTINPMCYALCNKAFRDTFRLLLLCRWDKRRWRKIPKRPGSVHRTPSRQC

| Substance | fold faster dissociation with GTP bound [1] | Ka [2] | fold faster dissociation than from Gq-GDP without receptor [2] | t1/2 of dissociation [2] | Ka [3] | Ka [4] | Ka [1] | Ka [5] | Ka [6] |
| --- | --- | --- | --- | --- | --- | --- | --- | --- | --- |
| m1 muscarinic cholinergic receptor (from UniProt P11229 1-460) | 70 fold |  |  |  |  |  |  |  |  |
| phospholipase C-β1 (from UniProt P10687 1-1216) (enzyme) |  | 2300 M⁻¹ | 90 fold | 0.3 s | 280000 M⁻¹ | 390000 M⁻¹ | 9.6e+06 M⁻¹ | 560000 M⁻¹ | 370000 M⁻¹ |
